Reference: PMC10412687
Changes are numbered by the printed parent chain. Numbers in names are those of the source. Blank lines part the entries; values can stand above or below the molecule they belong to.

Legend:
[1] = target: RNase E C-terminal domain (residues 451-898) with C-terminal eYFP (Caulobacter crescentus); assay: partitioning of a fluorescent client into condensates (fluorescence microscopy), peptide competition; PNPase incubated with peptide (GWW or scrambled, 0 to 200 µM) before adding RNase E to form droplets; 20 mM Tris pH 7.5, 1 mM MgCl2, 10 mM Na2HPO4 pH 7.5, 100 mM NaCl (120 mM NaCl in Fig. S2), 10% PEG 8000 (Figs. S2, S3)
[2] = target: RNase E C-terminal domain (residues 451-898) with C-terminal eYFP (Caulobacter crescentus); assay: partitioning of a fluorescent client into condensates (fluorescence microscopy); RNase E CTD condensates as scaffold, PNPase-mCherry variants as clients; 20 mM Tris pH 7.5, 20 mM MgCl2, 4 mM Na2HPO4 pH 7.5, 70 mM NaCl, 0.5 mM DTT; 30 min at room temperature; partitioning ratio (Fig. 3)
[3] = target: RNase E C-terminal domain (residues 451-898) with C-terminal eYFP (Caulobacter crescentus); assay: partitioning of a fluorescent client into condensates (fluorescence microscopy); 20 µM RNase E CTD-eYFP (or ∆PNP-BS) condensates as scaffold, mCherry-labelled client; 20 mM Tris pH 7.5, 1 mM MgCl2, 10 mM Na2HPO4 pH 7.5, 100 mM NaCl, 10% PEG 8000; 30 min at room temperature; partitioning ratio = mean droplet signal / mean non-droplet signal (Figs. 2, S1)

partitioning ratio (without peptide) [1]: 2.8
partitioning ratio with 100 µM GWW peptide [1]: 1.7
Molecule: PNPase-mCherry as used in the peptide competition and poly(A) recruitment microscopy (from UniProt Q9AC32 1-712) (enzyme)

partitioning ratio [2]: 4.4
partitioning ratio [3]: 5.7
B1: PNPase-S439A/S440A/S441A-mCherry (PNPase active site mutant) (enzyme)
chain: MFDIKRKTIEWGGKTLVLETGRIARQADGAVLATMGETVVLATAVFAKSQKPGQDFFPLTVNYQEKTFAAGKIPGGFFKREGRPSEKETLVSRLIDRPIRPLFVKGFKNEVQVVVTVLQHDLENDPDILGMVAASAALCLSGAPFMGPIGAARVGWVDGAYVLNPTLDEMKESKMDLVVAGTADAVMMVESEIQELSEEIVLGGVNFAHQQMQAVIDAIIDLAEHAAKEPFAFEPEDTDAIKAKMKDLVGADIAAAYKIQKKQDRYEAVGAAKKKAIAALGLSDENPTGYDPLKLGAIFKELEADVVRRGILDTGLRIDGRDVKTVRPILGEVGILPRTHGSALFTRGETQAIVVATLGTGDDEQFIDALEGTYKESFLLHYNFPPYSVGETGRMGSPGRREIGHGKLAWRALRPMLPTKEDFPYTIRLVSEITESNGAAAMATVCGSSLAMMDAGVPLVRPVSGIAMGLILEQDGFAVLSDILGDEDHLGDMDFKVAGTSEGLTSLQMDIKIAGITPAIMEQALAQAKEGRAHILGEMNKAMDAPRADVGDFAPKIETINIPTDKIREVIGSGGKVIREIVATTGAKVDINDDGVVKVSASDGAKIKAAIDWIKSITDEAEVGKIYDGKVVKVVDFGAFVNFFGAKDGLVHVSQISNERVAKPSDVLKEGQMVKVKLLGFDDRGKTKLSMKVVDQETGEDLSKKEAAAEEA

partitioning ratio [2]: 1
B2: PNPase-V104A/E224A/F233A-mCherry (enzyme)
chain: B1 chain with V104A, E224A, F233A, A439S, A440S, A441S
